Experimental data published in article PMC3558487.

Assays:
[1] = target: Vibrio harveyi chitoporin (VhChiP), recombinant, mature trimer (Vibrio harveyi type strain 650); test: SDS-PAGE of samples unheated or heated at up to 60°C; purified VhChiP (peak P2 of the ion exchange) unheated or heat-treated for 10 min, run on a 10% polyacrylamide gel; trimer to monomers
[2] = target: Vibrio harveyi chitoporin (VhChiP), recombinant, mature trimer (Vibrio harveyi type strain 650); test: single-channel current recording in a planar lipid bilayer (BLM); purified VhChiP added to the cis side of a DPhPC bilayer, 1 M KCl, 20 mM HEPES pH 7.5; closure induced by higher voltage (+200 mV)

Vibrio harveyi chitoporin (VhChiP), recombinant, mature trimer (natural protein)
stoichiometry N [1]: 3
stoichiometry N [2]: 3
